The text below walks through data of US20220185895A1.

Experiment [1] has as its target human CD94 (Natural killer cells antigen CD94) (human) (UniProt Q13241). The experiment in a line: flow cytometry with APC MESF bead calibration, CD94dim T-LGLL patient PBMC, CD3+CD16- T lymphocytes [Cont.].
Experiment [2] has the same target. Put plainly: flow cytometry with APC MESF bead calibration, average over healthy donor PBMC, CD3-CD57+ NK cells.
For experiment [3] the target is unchanged. The experiment in a line: flow cytometry with APC MESF bead calibration, normal liver, CD45+CD3+CD8+ T cells. For orientation: Flow cytometry measures light scatter and fluorescence of single cells or particles in a stream.
Experiment [4] shares this target. Put plainly: flow cytometry, normal liver, CD45+CD3+CD4+ T cells.
Experiment [5] shares this target. Put plainly: flow cytometry with APC MESF bead calibration, normal liver, NK cells (panel headed CD45+CD3+CD56+).
Experiment [6] has the same target. The experiment in a line: flow cytometry, CD94bright T-LGLL patient PBMC, CD3+CD16- T lymphocytes [Cont.].
The target is the same in experiment [7]. Put plainly: flow cytometry with APC MESF bead calibration, CLPD-NK patient PBMC, CD3+CD8+ T cells.
For experiment [8] the target is unchanged. Put plainly: flow cytometry with APC MESF bead calibration, CD94bright T-LGLL patient PBMC, CD3+CD16+ leukemic cells [Cont.].
Experiment [9] has the same target. The experiment in a line: flow cytometry with APC MESF bead calibration, healthy donor PBL, CD3+CD8+ T cells.
For experiment [10] the target is unchanged. The experiment in a line: flow cytometry with APC MESF bead calibration, normal liver, CD45+CD3+CD4+ T cells.
The target is the same in experiment [11]. The experiment in a line: flow cytometry with APC MESF bead calibration, healthy donor PBL, CD3-/CD57+ NK cells.
The target is the same in experiment [12]. Put plainly: flow cytometry with APC MESF bead calibration, average over healthy donor PBMC, CD3-CD16+ NK cells.
The target is the same in experiment [13]. Put plainly: flow cytometry with APC MESF bead calibration, CLPD-NK patient PBMC, CD3+CD16+ T-LGL.
Experiment [14] shares this target. The experiment in a line: flow cytometry with APC MESF bead calibration, CD94dim T-LGLL patient PBMC, CD3-CD16+ NK cells [Cont.].
Experiment [15] has the same target. Put plainly: flow cytometry, normal liver, CD45+CD3+CD8+ T cells.
For experiment [16] the target is unchanged. The experiment in a line: flow cytometry with APC MESF bead calibration, CD94bright T-LGLL patient PBMC, CD3-CD16+ NK cells [Cont.].
Experiment [17] shares this target. The experiment in a line: flow cytometry with APC MESF bead calibration, average over healthy donor PBMC, CD3-CD56+ NK cells.
For experiment [18] the target is unchanged. Put plainly: flow cytometry with APC MESF bead calibration, healthy donor PBL, CD3-/CD56+ NK cells.
Experiment [19] has the same target. The experiment in a line: flow cytometry, CLPD-NK patient PBMC, CD3+CD16+ T-LGL.
For experiment [20] the target is unchanged. The experiment in a line: flow cytometry with APC MESF bead calibration, CD94bright T-LGLL patient PBMC, CD3+CD16- T lymphocytes [Cont.].
For experiment [21] the target is unchanged. Put plainly: flow cytometry, healthy donor PBL, CD3+CD8+ T cells.
The target is the same in experiment [22]. Put plainly: flow cytometry, CD94dim T-LGLL patient PBMC, CD3+CD16- T lymphocytes [Cont.].
Experiment [23] shares this target. Put plainly: flow cytometry with APC MESF bead calibration, average over healthy donor PBMC, CD3+CD8+ (CD94+) T cells.
For experiment [24] the target is unchanged. Put plainly: flow cytometry with APC MESF bead calibration, healthy donor PBL, CD3-/CD16+ NK cells.
Experiment [25] addresses human NKG2A (NKG2-A/NKG2-B type II integral membrane protein) (human) (UniProt P26715). The experiment in a line: cell-based or functional assay.
Chain of UniProt P26715 (P26715 whole entry): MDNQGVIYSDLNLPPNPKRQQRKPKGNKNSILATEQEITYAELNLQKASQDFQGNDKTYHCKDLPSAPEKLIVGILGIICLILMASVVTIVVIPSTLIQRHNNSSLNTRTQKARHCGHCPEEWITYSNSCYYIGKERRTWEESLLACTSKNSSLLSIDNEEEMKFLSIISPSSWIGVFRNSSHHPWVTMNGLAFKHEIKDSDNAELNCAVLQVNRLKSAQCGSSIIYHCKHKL

Chain of UniProt Q13241 (Q13241 whole entry): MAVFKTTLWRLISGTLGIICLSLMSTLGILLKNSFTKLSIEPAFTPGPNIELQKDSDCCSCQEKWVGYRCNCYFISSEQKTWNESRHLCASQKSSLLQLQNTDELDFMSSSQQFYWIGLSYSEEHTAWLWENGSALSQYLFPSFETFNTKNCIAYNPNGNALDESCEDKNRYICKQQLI

As to “anti-CD94 antibody clone HP-3D9, APC-conjugated (BD Bioscience 559876)”, the CD94 receptor number (receptors per cell) in experiment [1] stood at 33000; in experiment [3], 97000; in [5], 195000; in [7] it was 28000; in experiment [8], 177000; in [9] it was 28000. In addition, the CD94 receptor number (receptors per cell) in experiment [10] stood at 55000; in experiment [11], 39000; in experiment [13], 51000; in [14], 14000; in [16] it was 51000; in experiment [18] it was 51000. The CD94 receptor number (receptors per cell) in experiment [20] was 172000; in experiment [24], 45000. In addition, the Antibody binding capacity (receptors per cell) in [2] was found to be 73000; in experiment [12], 77000; in experiment [17], 117000; in experiment [23], 45000. Further, the % positive cells in [4] was 13%; in experiment [6], 31%; in experiment [15] it was 25%; in experiment [19], 16%; in experiment [21] it was 30%; in experiment [22], 14%.
In [25], anti-NKG2A Z199 fucosylated antibody yielded an ADCC assay, depletion of CD3-CD56bright NK cells in fresh healthy donor PBMCs, EC50 of 40 ng/mL.
In experiment [25], “anti-NKG2A Z199 non-fucosylated antibody” showed an ADCC assay, depletion of CD3-CD16+ NK leukemic cells in frozen CLPD-NK patient PBMCs, EC50 of 3 ng/mL; an ADCC assay, depletion of CD3-CD56bright NK cells in fresh healthy donor PBMCs, EC50 of 3 ng/mL; an ADCC assay, potency against the fucosylated Z199 antibody of 13 times.
